target: SARS-CoV-2 RBD protein (Severe acute respiratory syndrome …, UniProt P0DTC2); experiment: ELISA

Row | Binder | binding result
1 | XMA09 (antibody, V domains shown) VH: QVQLVQSGAEVKKPGSSVKVSCKASGGTFSSFAISWVRQAPGQGLEWMGGIIPIYGTANYAQKFQGRVTITADESTSTAYMDLSSLRSEDTAVYYCARDGSSTYYPHNWFDPWGQGTLVTVSS VL: QSVLTQPPSVSGAPGQRVTISCTGSSSNIGSGYDVHWYQQLPGTAPKLLIYGNSNRPSGVPDRFSGSKSGTSASLAITGLQAEDEADYYCQSYDSSLSGVFGTGTKVTVL | binds
2 | XMA01 (antibody, V domains shown) VH: EVQLVESGGGLVQPGGSLRLSCSASGFTFSSYAMHWVRQAPGKGLEYVSSISSNGGSTYYADSVKGRFTISRDNSKNTLYLQMSSLRVEDAAVYYCVKHYQQQLLWGGPDVWGQGTTVTVSS VL: DIQMTQSPVSLSASVGDRVTITCRASQSISTWLAWYQQKPGKAPKLLIYETSSLESGVPSRFSGSGSGTEFTLTISSLQPDDFATYYCQQFNSYPWTFGQGTKVEIK | binds
3 | XMA04 (antibody, V domains shown) VH: EVQLVESGGGVVQPGRSLRLSCAASGFTFRTYAMHWVRQAPGKGLEWVAVMWNDGSNKYYADSVKGRFTISRDNSKNTLYLEMNSLRAEDTAVYYCAREGVAAAGSSSDAFDIWGQGTMVTVSS VL: DIQMTQSPSSLSASVGDRVTITCRASQSISNFLNWYQQKPGKAPKLLIYAASSLQSGVPSRFSGSGSGTDFTLTISSLQPEDFATYYCQQSYSTLYSFGQGTKLEIK | binds

— publication PMC9080080 (Cell Reports, 2022)
